Test [1] addresses T1, peptide 5 (also: biotinylated, site not given here).
T1 construct: also called 5 on the axis Peptide number; first peptide library
T1 peptide: RHDSGYEVH
Kind of test: ELISA, biotinylated peptide on streptavidin plate, O.D. 405 nm [upper chart, Figure 1]. The text has this: (§1) One library comprised a total of 33 biotinylated peptides covering the complete amino acid (aa) sequence of Aβ1-42 (produced by Mimotopes and purchased from ANAWA Trading SA), the second library contains biotinylated peptides using peptide 12 (aa12-20 of Aβ) from the first peptide library and substituting each aa in the sequence by an alanine (see table 8 below), and the third library contains biotinylated peptides 13, 14, or 15 (aa 13-21, 14-22 or 15-23 of Aβ) and substituting in each case the last amino acids to an alanine or to a glycine for aa 21 which is already an alanine (see table 9 below). A biotinylated complete Aβ1-42 peptide was used as positive control (Bachem). Epitope mapping was done according to the manufacturer's (Mimotopes) instructions. Briefly, Streptavidin coated plates (NUNC) were blocked with 0.1% BSA in PBS overnight at 4° C. After washing with PBS-0.05% Tween 20, plates were coated for 1 hour at RT with the different peptides from the library, diluted in 0.1% BSA, 0.1% Sodium Azide in PBS to a final concentration of 10 μM. […] Plates were washed again and incubated with alkaline phosphatase conjugated goat anti human IgG for 1 h at RT.

Test [2] has as its target T2, peptide 8 (also: biotinylated, site not given here).
T2 construct: also called 8 on the axis Peptide number; first peptide library
T2 peptide: SGYEVHHQK
Described as above.
Excerpt: as §1

The target in test [3] is T3, peptide 22 (also: biotinylated, site not given here).
T3 construct: also called 22 on the axis Peptide number; first peptide library
T3 peptide: EDVGSNKGA
The description is as above.
Excerpt: as §1

The target of test [4] is T4, peptide 10 (also: biotinylated, site not given here).
T4 construct: also called 10 on the axis Peptide number; first peptide library
T4 peptide: YEVHHQKLV
The test is described as above.
Excerpt: as §1

The target in test [5] is T5, peptide 4 (also: biotinylated, site not given here).
T5 construct: also called 4 on the axis Peptide number; first peptide library
T5 peptide: FRHDSGYEV
The description is as above.
Excerpt: as §1

For test [6], the target named is T6, peptide 18 (also: biotinylated, site not given here).
T6 construct: also called 18 on the axis Peptide number; first peptide library
T6 peptide: VFFAEDVGS
The test is described as above.
Excerpt: as §1

In test [7] the target is T7, peptide 2 (also: biotinylated, site not given here).
T7 construct: also called 2 on the axis Peptide number; first peptide library
T7 peptide: AEFRHDSGY
The test is described as above.
Excerpt: as §1

Test [8] concerns the target T8, peptide 24 (also: biotinylated, site not given here).
T8 construct: also called 24 on the axis Peptide number; first peptide library
T8 peptide: VGSNKGAII
Described as above.
Excerpt: as §1

For test [9], the target named is T9, peptide 25 (also: biotinylated, site not given here).
T9 construct: also called 25 on the axis Peptide number; first peptide library
T9 peptide: GSNKGAIIG
The test is described as above.
Excerpt: as §1

In test [10] the target is T10, peptide 21 (also: biotinylated, site not given here).
T10 construct: also called 21 on the axis Peptide number; first peptide library
T10 peptide: AEDVGSNKG
The test is described as above.
Excerpt: as §1

Test [11] concerns the target T11, peptide 29 (also: biotinylated, site not given here).
T11 construct: also called 29 on the axis Peptide number; first peptide library
T11 peptide: GAIIGLMVG
The test is described as above.
Excerpt: as §1

For test [12], the target named is T12, soluble polymeric amyloid beta (oligomers) (UniProt P05067 672-713).
T12 construct: domain: amyloid beta 1-42; also called amyloid oligomers; Abeta oligomer
T12 sequence (P05067 672-713 limits assumed): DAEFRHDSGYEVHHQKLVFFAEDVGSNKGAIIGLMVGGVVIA
The test can be described thus: ELISA on coated amyloid (55 µg/ml); mC2 at 0.312 ug/ml. How it is done:
(§2) In order to evaluate the specificity of mC2 to different stages of polymerized amyloid protein, monomeric, polymeric soluble and fibrillic amyloid, an ELISA coated with these different stages of polymeric beta-amyloid was performed (FIG. 9). Monomers were prepared according to a modified method published by (Klein, 2002), soluble polymeric amyloid beta according to (Barghorn et al., 2005), whereas fibers were performed by incubation of amyloid (Bachem, Switzerland) with a final concentration of 1 μg/μl in Tris/HCl pH 7.4 at 37° C. for 5 days followed by a centrifugation step (10,000 rpm for 5 minutes). Then amyloid polymers were coated on an ELISA plates with a final concentration of 55 μg/ml and binding affinity ELISA by using an anti-mouse IgG monoclonal antibody (Jackson) labelled with alkaline phosphate was performed.

The target of test [13] is T13, amyloid beta 1-42 fibers (UniProt P05067 672-713).
T13 construct: domain: amyloid beta 1-42; Many copies per fiber; also called Aβ1-42 fibers; fibrillar Aβ1-42
T13 sequence (P05067 672-713 limits assumed): as above
The test is described as above. The procedure: as §2

Test [14] concerns the target T14, amyloid beta 1-42 monomers (UniProt P05067 672-713).
T14 construct: domain: amyloid beta 1-42; also called Aβ1-42 monomers; amyloid monomers
Described as above. How it is done:
as §2

Test [15] has as its target T12, soluble polymeric amyloid beta …. Kind of test: ELISA on coated amyloid (55 µg/ml); mC2 at 0.078 ug/ml. The procedure: as §2
Test [16] deals with T13, amyloid beta 1-42 fibers. Described as above. How it is done: as §2
Test [17] addresses T14, amyloid beta 1-42 monomers. The test is described as above. How it is done: as §2

No end group written: not given here.

For 2 molecules, binding result and O.D results are on record in US20100150906A1 (AC IMMUNE S A, published 2010).

T14 sequence (P05067 672-713 limits assumed): as above

B1: humanized anti-human amyloid beta monoclonal antibody hC2 (antibody, human IgG4 S228P, kappa, V domains shown)
VH: EVQLVESGGGLVQPGGSLRLSCAASGFTFSSYGMSWVRQAPGKGLELVASINSNGGSTYYPDSVKGRFTISRDNAKNSLYLQMNSLRAEDTAVYYCASGDYWGQGTTVTVSS
VL: DIVMTQSPLSLPVTPGEPASISCRSSQSLVYSNGDTYLHWYLQKPGQSPQLLIYKVSNRFSGVPDRFSGSGSGTDFTLKISRVEAEDVGVYYCSQSTHVPWTFGQGTKVEIKR
notes: also called humanized antibody C2; humanized C2
In the case of B1, the binding result in [1], in test [2], in [3], in [4], in test [5] and in test [6] was “no binding (tested: 200 ng/ml (single concentration))” in each case. Also, the binding result in test [7], in test [8], in test [9], in test [10] and in test [11] was “no binding (tested: 200 ng/ml (single concentration))” each time.

B2: mouse monoclonal antibody ACI-01-Ab7C2 (antibody, V domains shown)
VH: EVQLVESGGGLVQPGGSLKLSCAASGFTFSSYGMSWVRQTPDKRLELVASINSNGGSTYYPDSVKGRFTISRDNAKNTLYLQMSSLKSEDTAMYYCASGDYWGQGSTLTVSS
VL: DVVMTQTPLSLPVSLGDQASISCRSSQSLVYSNGDTYLHWYLQKPGQSPKLLIYKVSNRFSGVPDRFSGSGSGTDFTLKISRVEAEDLGVYFCSQSTHVPWTFGGGTKLEIK
notes: also called mC2; mACI-01-Ab7 C2
For B2, the O.D amounted to 1.72 O.D in [12]; 0.989 O.D in test [13]; 0.649 O.D in test [14]; 0.652 O.D in test [15]; 0.499 O.D in test [16]; 0.333 O.D in test [17].
